Here are results for 3 molecules from paper PMC6005164, “A novel thymidylate synthase from the Vibrionales, Alteromonadales, Aeromonadales, and Pasteurellales (VAAP) clade with altered nucleotide and folate binding sites” (PeerJ, 2018).

One data set addresses T1, VpTS (Vibrio parahaemolyticus, UniProt Q87SA0).
T1 construct: gene thyA; full-length from codon-optimized synthetic gene in pJexpress414; E. coli BL21(DE3)-SI; 35,944 Da with tag; homodimer 70 kDa
T1 sequence (Q87SA0 1-283): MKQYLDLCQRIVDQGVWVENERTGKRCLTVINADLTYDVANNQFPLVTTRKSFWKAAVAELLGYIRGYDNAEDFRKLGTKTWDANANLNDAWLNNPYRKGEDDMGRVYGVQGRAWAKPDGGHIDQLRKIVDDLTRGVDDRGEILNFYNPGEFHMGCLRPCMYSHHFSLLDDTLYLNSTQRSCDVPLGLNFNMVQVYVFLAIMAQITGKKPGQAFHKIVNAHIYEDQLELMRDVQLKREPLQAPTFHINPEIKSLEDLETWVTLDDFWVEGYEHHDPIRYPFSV
In words: spectrophotometric dihydrofolate formation at […] nm, dose-response fit. Type of data set: biochemical.

Substrate in data set [1]: O=c1ccn([C@H]2C[C@H](O)[C@@H](COP(=O)(O)O)O2)c(=O)[nH]1
In words: purified protein. The settings on record: co-substrate mTHF, dUMP 0–150 µM, 50 mM Tris-HCl pH 7.5, 25 mM MgCl2, 5 mM DTT, 1 mM EDTA, 30 °C. Format: biochemical, Vibrio parahaemolyticus.

Substrate in data set [2]: Nc1nc2c(c(=O)[nH]1)N1CN(c3ccc(C(=O)N[C@@H](CCC(=O)O)C(=O)O)cc3)C[C@H]1CN2
In words: purified protein. The settings on record: co-substrate dUMP, mTHF 0–300 µM, 50 mM Tris-HCl pH 7.5, 25 mM MgCl2, 5 mM DTT, 1 mM EDTA, 30 °C, varied: cofactor. Type of data set: biochemical, Vibrio parahaemolyticus.

Data set [3] concerns the molecule itself. In words: SEC; Superdex 75 10/300, 1 mL/min, Tris HCl 20 mM pH 7.5, NaCl 100 mM; native molecular weight from a Kav vs. log MW plot of standards. (SEC sorts molecules by how far they enter the pores of the column.)

One may read the IC50 as the concentration at which inhibition is half-maximal. Higher therefore signals weaker potency in that assay. On VpTS, `COc1cc(Cc2cnc(N)nc2N)cc(OC)c1OC` [trimethoprim] displayed an IC50 of 106 ± 11.4 µM.

B1: VpTS (Vibrio parahaemolyticus RIMD 2210633) (protein)
chain: MKQYLDLCQRIVDQGVWVENERTGKRCLTVINADLTYDVANNQFPLVTTRKSFWKAAVAELLGYIRGYDNAEDFRKLGTKTWDANANLNDAWLNNPYRKGEDDMGRVYGVQGRAWAKPDGGHIDQLRKIVDDLTRGVDDRGEILNFYNPGEFHMGCLRPCMYSHHFSLLDDTLYLNSTQRSCDVPLGLNFNMVQVYVFLAIMAQITGKKPGQAFHKIVNAHIYEDQLELMRDVQLKREPLQAPTFHINPEIKSLEDLETWVTLDDFWVEGYEHHDPIRYPFSV
notes: full-length from codon-optimized synthetic gene in pJexpress414; E. coli BL21(DE3)-SI; 35,944 Da with tag; homodimer 70 kDa
What is called Km is the substrate concentration at which the rate is half of its maximum. Broadly, the kcat is the number of substrate molecules converted per active site and unit of time at saturation. Regarding B1, the values for the Km in the data set “purified protein [1]” and in “purified protein [2]” were 27.3 ± 4.3 µM and 96.3 ± 18 µM, respectively. Further, the kcat in the data set “purified protein [1]” and in the data set “purified protein [2]” was 0.3 s⁻¹ each time.

B2: recombinant thymidylate synthase from Vibrio parahaemolyticus FIM-S1708+ (enzyme, UniProt Q87SA0 1-283, looked up)
chain: MKQYLDLCQRIVDQGVWVENERTGKRCLTVINADLTYDVANNQFPLVTTRKSFWKAAVAELLGYIRGYDNAEDFRKLGTKTWDANANLNDAWLNNPYRKGEDDMGRVYGVQGRAWAKPDGGHIDQLRKIVDDLTRGVDDRGEILNFYNPGEFHMGCLRPCMYSHHFSLLDDTLYLNSTQRSCDVPLGLNFNMVQVYVFLAIMAQITGKKPGQAFHKIVNAHIYEDQLELMRDVQLKREPLQAPTFHINPEIKSLEDLETWVTLDDFWVEGYEHHDPIRYPFSV
notes: thymidylate synthase (folate-dependent, thyA) of Vibrio parahaemolyticus strain FIM-S1708+, GenBank WP_100088861.1; codon-optimized synthetic gene in pJexpress414; theoretical mass with tag 35,944 Da; the 35 kDa band is compared with the mass that includes the 10-His tag, so the tag was probably still on the protein in the size exclusion run; also called VpTS; TS
Broadly, the stoichiometry N is the number of molecules, sites or subunits per partner or assembly. Take B2: the “stoichiometry N” value in data set [3] was determined as 2.
